Structures can show the parent of a compound that is named as a salt. Where two headings read alike, the source gives them in different places. Square brackets hold non-standard residues; d marks the D form. Ends that are not written are not given here. pY = N[C@@H](Cc1ccc(OP(=O)(O)O)cc1)C(=O)O

One experiment addresses T1, DLAR D1D2 (Drosophila melanogaster, UniProt P16621).
T1 construct: DLAR 1448-2029; His tag (pET-15b or pET-22b); made in house; host or cells: E. coli BL21(DE3)
T1 sequence (P16621 1448-2029): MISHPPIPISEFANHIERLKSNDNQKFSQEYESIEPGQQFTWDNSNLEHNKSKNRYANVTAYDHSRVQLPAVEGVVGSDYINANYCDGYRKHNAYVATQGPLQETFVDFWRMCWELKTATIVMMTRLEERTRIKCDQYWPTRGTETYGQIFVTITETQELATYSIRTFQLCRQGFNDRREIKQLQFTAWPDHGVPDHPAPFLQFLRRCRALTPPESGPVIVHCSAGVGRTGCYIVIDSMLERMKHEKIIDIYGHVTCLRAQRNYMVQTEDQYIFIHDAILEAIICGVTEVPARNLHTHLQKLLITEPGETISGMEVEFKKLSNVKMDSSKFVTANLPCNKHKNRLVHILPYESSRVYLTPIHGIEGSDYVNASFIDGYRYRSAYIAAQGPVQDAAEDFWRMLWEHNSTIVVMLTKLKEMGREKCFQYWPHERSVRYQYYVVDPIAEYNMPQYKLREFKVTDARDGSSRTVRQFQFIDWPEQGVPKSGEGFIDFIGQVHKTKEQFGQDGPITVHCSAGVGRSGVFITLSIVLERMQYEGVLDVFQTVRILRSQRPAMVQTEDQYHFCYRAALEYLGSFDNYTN
The experiment can be described thus: PNC binding by fluorescence quenching, DLAR D1D2. Particulars: 5.0 µM protein, 25 mM citrate pH 6.5, fluorescence quenching 350 nm, independent two site model. On the procedure: (§1) 5.0 µM of recombinant protein was titrated with increasing concentrations of PNC (Sigma-Aldrich) in 25 mM citrate buffer pH 6.5, 100 mM NaCl and 2 mM DTT. The closing of the WPD loop leads to the quenching of the intrinsic tryptophan fluorescence. Fluorescence quenching was monitored at 350 nm (emission maximum) for recombinant PTP domains and the dissociation constants were calculated by fitting the data to a hyperbolic equation of ligand binding using the nonlinear regression modules of Sigma Plot software (Systat Software Inc.).
(§2) To evaluate the differences in the phosphotyrosine binding pockets of the two domains of DLAR and PTP99A, a small molecule probe para-Nitrocatecholsulfate (2-hydroxy-5-nitrophenyl sulfate; PNC) was used. PNC acts as a small molecule competitive inhibitor of the PTPs as it mimics the phosphotyrosine residue. PNC binding was evaluated by monitoring the fluorescence quenching of the tryptophan residues in the WPD loop. […] PNC binding to the DLAR D1D2 construct fitted well to the independent ligand binding model for two non-interacting sites.

The target in the next experiment is T2, DLAR D2 (Drosophila melanogaster, UniProt P16621).
T2 construct: DLAR 1728-2029; His tag (pET-15b or pET-22b); made in house; host or cells: E. coli BL21(DE3)
T2 sequence (P16621 1728-2029): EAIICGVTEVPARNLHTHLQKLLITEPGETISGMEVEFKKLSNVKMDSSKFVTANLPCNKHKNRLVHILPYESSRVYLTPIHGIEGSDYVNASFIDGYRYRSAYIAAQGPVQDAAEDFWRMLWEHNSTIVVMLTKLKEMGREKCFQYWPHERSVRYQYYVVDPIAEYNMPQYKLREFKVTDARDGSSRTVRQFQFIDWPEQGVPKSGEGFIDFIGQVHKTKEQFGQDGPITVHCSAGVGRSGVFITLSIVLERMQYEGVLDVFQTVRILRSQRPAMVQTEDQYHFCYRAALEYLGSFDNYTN
The experiment in a line: PNC binding by fluorescence quenching, DLAR D2. The conditions noted are these: 5.0 µM protein, 25 mM citrate pH 6.5; fluorescence quenching 350 nm; single site model. How it is done:
as §1, §2

A further experiment has as its target T3, PTP99A D2 (Drosophila melanogaster, UniProt P35832).
T3 sequence (P35832 740-1050): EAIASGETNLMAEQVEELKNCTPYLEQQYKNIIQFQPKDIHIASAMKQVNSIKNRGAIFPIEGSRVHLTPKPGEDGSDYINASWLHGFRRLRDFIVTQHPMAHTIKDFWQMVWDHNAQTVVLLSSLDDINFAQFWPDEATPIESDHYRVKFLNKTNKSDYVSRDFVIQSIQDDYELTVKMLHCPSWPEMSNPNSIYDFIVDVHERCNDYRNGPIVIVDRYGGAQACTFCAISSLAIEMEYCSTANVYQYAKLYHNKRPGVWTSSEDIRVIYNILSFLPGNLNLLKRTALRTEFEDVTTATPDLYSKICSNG
The experiment can be described thus: PNC binding by fluorescence quenching, PTP99A D2. How it is done: as §1, §2

In another experiment the target is T4, PTP99A D1 (Drosophila melanogaster, UniProt P35832).
T4 sequence (P35832 450-756): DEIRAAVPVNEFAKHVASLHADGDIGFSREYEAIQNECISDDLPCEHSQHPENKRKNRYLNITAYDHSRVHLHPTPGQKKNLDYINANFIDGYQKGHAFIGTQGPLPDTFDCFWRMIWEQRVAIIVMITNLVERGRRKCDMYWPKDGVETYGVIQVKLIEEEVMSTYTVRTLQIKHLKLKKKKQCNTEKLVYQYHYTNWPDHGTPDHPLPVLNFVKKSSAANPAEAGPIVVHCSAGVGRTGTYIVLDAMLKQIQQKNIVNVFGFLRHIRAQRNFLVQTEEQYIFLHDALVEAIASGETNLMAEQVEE
The experiment in a line: PNC binding by fluorescence quenching, PTP99A D1. Also on record: PTP99A 450-756; His tag (pET-15b or pET-22b); made in house; host or cells: E. coli BL21(DE3). How it is done:
as §1, §2

For another experiment, the target named is T5, PTP99A D1D2 (Drosophila melanogaster, UniProt P35832).
T5 sequence (P35832 450-1050): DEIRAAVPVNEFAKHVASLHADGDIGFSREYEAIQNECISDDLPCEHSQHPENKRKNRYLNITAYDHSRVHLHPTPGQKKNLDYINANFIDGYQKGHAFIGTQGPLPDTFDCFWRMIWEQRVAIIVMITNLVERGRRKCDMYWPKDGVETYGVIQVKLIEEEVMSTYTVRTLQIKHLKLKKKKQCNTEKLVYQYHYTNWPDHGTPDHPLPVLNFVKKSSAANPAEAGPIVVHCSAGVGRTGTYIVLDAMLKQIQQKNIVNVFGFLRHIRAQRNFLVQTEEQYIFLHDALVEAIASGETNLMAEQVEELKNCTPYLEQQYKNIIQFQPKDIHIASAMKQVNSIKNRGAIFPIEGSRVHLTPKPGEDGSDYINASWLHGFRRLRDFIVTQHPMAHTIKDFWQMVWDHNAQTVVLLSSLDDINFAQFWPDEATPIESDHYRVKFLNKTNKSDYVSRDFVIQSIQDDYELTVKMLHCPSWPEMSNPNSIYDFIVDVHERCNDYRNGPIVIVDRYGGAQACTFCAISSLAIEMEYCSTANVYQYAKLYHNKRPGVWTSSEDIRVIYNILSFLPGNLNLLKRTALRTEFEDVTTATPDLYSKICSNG
The experiment can be described thus: PNC binding by fluorescence quenching, PTP99A D1D2. The conditions noted are these: 5.0 µM protein, 25 mM citrate pH 6.5; fluorescence quenching 350 nm; independent two site model; read-out: Kd1. How it is done:
as §1, §2

For another experiment, the target named is T6, DLAR D1 (Drosophila melanogaster, UniProt P16621).
T6 construct: DLAR 1448-1746; His tag (pET-15b or pET-22b); made in house; host or cells: E. coli BL21(DE3)
T6 sequence (P16621 1448-1746): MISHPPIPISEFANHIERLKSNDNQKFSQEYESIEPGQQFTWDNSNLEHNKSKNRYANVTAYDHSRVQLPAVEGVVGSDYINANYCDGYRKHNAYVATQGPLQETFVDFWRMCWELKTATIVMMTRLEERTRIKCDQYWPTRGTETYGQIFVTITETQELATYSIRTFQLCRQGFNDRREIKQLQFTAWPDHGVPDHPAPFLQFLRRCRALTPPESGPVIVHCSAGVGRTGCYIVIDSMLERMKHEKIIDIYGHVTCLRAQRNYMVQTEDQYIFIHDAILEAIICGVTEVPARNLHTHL
The experiment can be described thus: PNC binding by fluorescence quenching, DLAR D1. On the procedure:
as §1, §2

The target of experiment [1] is DLAR D1D2 (tandem PTP domains of Drosophila Leukocyte antigen Related) (Drosophila melanogaster). The experiment can be described thus: SPR; Biacore-2000; DLAR PTP domains immobilised on CM5 chips by amine coupling; peptides as analyte at 50-700 µM; 25°C; 10 mM HEPES pH 8.0, 150 mM NaCl, 10 mM DTT, 3 mM EDTA; 5 µL/min; two independent sites fit for the double domain constructs, single-site fit for DLAR D1 and DLAR D2. (In general: In SPR one partner is held on a chip, and binding of the other changes the refractive index at the surface.)

The target of experiment [2] is DLAR D1D2HSS (Cys to Ser mutation in the D2 domain) (Drosophila melanogaster). The experiment is described as above.
The target in experiment [3] is DLAR D1 (membrane-proximal PTP domain of DLAR) (Drosophila melanogaster). The description is as above.
Experiment [4] deals with DLAR D2 (membrane-distal PTP domain of DLAR) (Drosophila melanogaster). Described as above.
For experiment [5], the target named is DLAR D1HSS D2 (Cys to Ser mutation in the D1 domain) (Drosophila melanogaster). The experiment is described as above.
[6] abbreviates: 5.0 µM protein, 25 mM citrate pH 6.5, fluorescence quenching 350 nm, single site model.

`O=[N+]([O-])c1ccc(O)c(OS(=O)(=O)O)c1` [PNC, 2-hydroxy-5-nitrophenyl sulfate]: the Kd on DLAR D1D2 (read-out: Kd1) stood at 160 µM; at DLAR D1D2 (read-out: Kd2), 173 µM; at DLAR D2, 214 µM; on PTP99A D2 (setting [6]), 716 µM; on PTP99A D1 (setting [6]), 153 µM; at PTP99A D1D2 it was 94.8 µM. The molecule also gave a Kd on DLAR D1 (5.0 µM protein, 25 mM citrate buffer pH 6.5, 100 mM NaCl, 2 mM DTT, tryptophan fluorescence quenching 350 nm, single site model) of 235 µM. In addition, the “relative PNC binding” value on PTP99A D2 (D2 domain of PTP99A compared to the other PTP domains, fluorescence quenching) is recorded as “much more poorly”; on PTP99A D1 (D1 domain of PTP99A alone, fluorescence quenching) it was “four times more favorable”; at DLAR D1 (two PTP domains of DLAR (D1 and D2) compared, fluorescence quenching), “comparable affinities”.
The koff is a measure of how fast the partners let go of each other. Read a high koff as fast dissociation. Usually kon stands for a measure of how fast the partners come together. The low end stands for slower complex formation, the high end for faster complex formation. Take TAEPD[pY]GALYE [Cuticle Peptide TAEPD(pY)GALYE]: in experiment [1], the KD, first binding site was determined as 313 µM; the KD, second binding site was found to be 2.02 µM; the ka, first binding site worked out at 32.6 M⁻¹ s⁻¹; the ka, second binding site worked out at 16500 M⁻¹ s⁻¹. In experiment [1], this molecule showed a kd, first binding site of 0.0102 s⁻¹ and a kd, second binding site of 0.0333 s⁻¹. In experiment [2], this molecule gave a KD, first binding site of 296 µM; a KD, second binding site of 9.43 µM; a ka, first binding site of 51.7 M⁻¹ s⁻¹; a ka, second binding site of 1.37 M⁻¹ s⁻¹. In [2], this molecule showed a kd, first binding site of 0.0153 s⁻¹ and a kd, second binding site of 1.3e-05 s⁻¹. In experiment [3], this molecule registered a Kd of 94.6 µM, a dissociation rate constant (koff) of 0.00176 s⁻¹ and an association rate constant (kon) of 18.6 M⁻¹ s⁻¹. In experiment [4], this molecule returned a Kd of 104 µM, a koff of 0.00552 s⁻¹ and an on-rate constant (kon) of 52.8 M⁻¹ s⁻¹. In experiment [5], this molecule registered a KD, first binding site of 87.5 µM; a KD, second binding site of 1.87 µM; a ka, first binding site of 74.7 M⁻¹ s⁻¹; a ka, second binding site of 28800 M⁻¹ s⁻¹. In experiment [5], this molecule showed a kd, first binding site of 0.00654 s⁻¹ and a kd, second binding site of 0.054 s⁻¹.

The record behind these values is publication PMC3172300, “Modulation of Catalytic Activity in Multi-Domain Protein Tyrosine Phosphatases” (PLoS ONE, 2011).
